Laboratory results from US20250085286A1.

Target: HRP-labelled monoclonal antibody targeting PRO-C22
Experiment: competitive ELISA, standard peptide against coated Biotin-… for the HRP-mAb

Sequence of HRP-labelled monoclonal antibody targeting PRO-C22 (VH, as listed by the source limits assumed, chain 1 of 2): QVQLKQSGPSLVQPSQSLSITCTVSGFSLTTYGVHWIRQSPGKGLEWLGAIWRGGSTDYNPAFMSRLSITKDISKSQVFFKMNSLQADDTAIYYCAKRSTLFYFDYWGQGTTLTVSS
Sequence of HRP-labelled monoclonal antibody targeting PRO-C22 (VL, as listed by the source limits assumed, chain 2 of 2): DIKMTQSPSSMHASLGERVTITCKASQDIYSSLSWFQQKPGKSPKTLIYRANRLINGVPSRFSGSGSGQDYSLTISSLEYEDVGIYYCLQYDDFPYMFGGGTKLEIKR

- IC50: 8.15 ng/mL
Binder: GPPGPPGQCDPSQCAYFASLAARPGNVKGP [30 AA standard peptide …]
